The text below walks through data of patent US20240226274A1.

The target of experiment [1] is postfusion RSV A2 F (respiratory syncytial virus A2) (UniProt P03420). The experiment can be described thus: BLI; antibody on Protein A sensor; F protein heated 1 h at 60 C. In general terms: In BLI a coated tip is dipped into the sample, and binding shifts an interference pattern.
For experiment [2], the target named is RSV F DS-Cav1 (respiratory syncytial virus). The experiment can be described thus: BLI; antibody on Protein A sensor, F protein in solution; RT, not heated.
Experiment [3] addresses RSV F design R-1b (respiratory syncytial virus (A2 strain)). The description is as above.
Experiment [4] has as its target postfusion RSV A2 F (respiratory syncytial virus A2) (UniProt P03420). The description is as above.
Experiment [5] has as its target RSV F DS-Cav1 (respiratory syncytial virus). The experiment can be described thus: BLI; antibody on Protein A sensor; F protein heated 1 h at 55 C.
The target of experiment [6] is RSV F design R-1b (respiratory syncytial virus (A2 strain)). The description is as above.
Experiment [7] deals with RSV F DS-Cav1 (respiratory syncytial virus). The experiment can be described thus: BLI; antibody on Protein A sensor; F protein heated 1 h at 60 C.
Experiment [8] concerns the target hMPV F design M-104 (human metapneumovirus) (UniProt Q6WB98). As to the kind of experiment: BLI; antibody on Protein A sensor; F protein heated 1 h at 55 C.
Experiment [9] concerns the target hMPV F 115-BV (human metapneumovirus) (UniProt Q6WB98). The experiment can be described thus: BLI; antibody on Protein A sensor, F protein in solution; RT, not heated.
In experiment [10] the target is hMPV F design M-104 (human metapneumovirus) (UniProt Q6WB98). Described as above.

As usually defined, the kon is the rate constant with which the complex forms. As usually defined, the Kd is the concentration at which binding is half-saturated. Low values mean higher affinity, high ones lower affinity. Broadly, the koff is a measure of how fast the partners let go of each other. A high value points to fast dissociation.

Where “and” joins values, the source holds several entries; their conditions need not be identical. Identical values can stand only once.

antibody 131-2A: the kon is 522000 M⁻¹ s⁻¹ and 482000 M⁻¹ s⁻¹ and 452000 M⁻¹ s⁻¹ in [1]; 8290 M⁻¹ s⁻¹ and 9190 M⁻¹ s⁻¹ and 17600 M⁻¹ s⁻¹ in experiment [2]; 47900 M⁻¹ s⁻¹ and 47500 M⁻¹ s⁻¹ and 33700 M⁻¹ s⁻¹ in [3]; 400000 M⁻¹ s⁻¹ and 409000 M⁻¹ s⁻¹ and 485000 M⁻¹ s⁻¹ in [4]. Moreover, the Kd was 133 nM and 34.4 nM and 17.4 nM in [2]; 6.47 nM and 7.43 nM and 11.9 nM in experiment [3]. The koff in experiment [3] is 0.00031 s⁻¹ and 0.000353 s⁻¹ and 0.0004 s⁻¹.

For antibody AM14, the kon in experiment [5] was 50300 M⁻¹ s⁻¹ and 58500 M⁻¹ s⁻¹ and 50100 M⁻¹ s⁻¹; in experiment [6], 88700 M⁻¹ s⁻¹ and 86300 M⁻¹ s⁻¹ and 99100 M⁻¹ s⁻¹; in experiment [2], 161000 M⁻¹ s⁻¹ and 204000 M⁻¹ s⁻¹ and 181000 M⁻¹ s⁻¹; in [3], 203000 M⁻¹ s⁻¹ and 227000 M⁻¹ s⁻¹ and 219000 M⁻¹ s⁻¹. Further, the Kd in experiment [6] is 0.134 nM and 0.133 nM; in [3], 0.497 nM and 0.489 nM and 0.568 nM. Moreover, the koff is 1.15e-05 s⁻¹ and 1.31e-05 s⁻¹ in [6]; 0.000111 s⁻¹ and 0.000124 s⁻¹ and 0.000101 s⁻¹ in experiment [3].

In the case of antibody D25, the kon in experiment [5] was 213000 M⁻¹ s⁻¹ and 160000 M⁻¹ s⁻¹ and 142000 M⁻¹ s⁻¹; in [6], 156000 M⁻¹ s⁻¹ and 120000 M⁻¹ s⁻¹ and 121000 M⁻¹ s⁻¹; in experiment [7], 115000 M⁻¹ s⁻¹ and 135000 M⁻¹ s⁻¹ and 132000 M⁻¹ s⁻¹; in experiment [2] it was 121000 M⁻¹ s⁻¹ and 187000 M⁻¹ s⁻¹ and 149000 M⁻¹ s⁻¹; in experiment [3], 179000 M⁻¹ s⁻¹ and 144000 M⁻¹ s⁻¹ and 151000 M⁻¹ s⁻¹.

Regarding antibody MPE8, the kon was 36600 M⁻¹ s⁻¹ and 21700 M⁻¹ s⁻¹ and 25100 M⁻¹ s⁻¹ in [8]; 14500 M⁻¹ s⁻¹ and 15200 M⁻¹ s⁻¹ and 10900 M⁻¹ s⁻¹ in experiment [9]; 40100 M⁻¹ s⁻¹ and 32400 M⁻¹ s⁻¹ and 42100 M⁻¹ s⁻¹ in experiment [10].
